PMC13031426

Target: Complex III (cytochrome bc1 complex) dimer of the ΔQCR6 yeast supercomplex (Saccharomyces cerevisiae) (UniProt P07143)
Assay: cryo-EM structure

stoichiometry N: 2
Substance: Complex III (cytochrome bc1 complex) dimer of the ΔQCR6 yeast supercomplex (from UniProt P07143 62-309)
